In patent US20250304650A1:
Substitutions are numbered along the chain they refer to. Names and notes keep the numbering of the source. Values joined by “and” are separate entries in the source; they are usually repeats but may differ in a detail not shown here. Identical values can stand only once. One block for each binder: values may come before it.

Experiments:
[1] = biological target: feline FcRn (FCN-F82W3, Acrobiosystems) (feline); test: SPR Carterra, IgG coupled, pH 6.0
[2] = biological target: feline FcRn (FCN-F82W3, Acrobiosystems) (feline); test: SPR Carterra, IgG coupled, pH 7.4
[3] = biological target: feline FcRn (IgG receptor FcRn large subunit p51 with feline beta-2-microglobulin) (feline); test: SPR Biacore 8K, Fc captured by SASA tag on BSA, pH 6.0
[4] = biological target: feline FcRn (IgG receptor FcRn large subunit p51 with feline beta-2-microglobulin) (feline); test: SPR Biacore 8K+, IgG on C1 chip, pH 5.9, 1:1 kinetic fit
[5] = biological target: feline FcRn (IgG receptor FcRn large subunit p51 with feline beta-2-microglobulin) (feline); test: SPR Biacore 8K+, IgG on C1 chip, pH 5.9, kinetic fit (printed 1:4)

Kd [1]: 3 nM | koff [1]: 0.0044 s⁻¹ | kon [1]: 1.48e+06 M⁻¹ s⁻¹ | Kd [2]: 185 nM | koff [2]: 0.118 s⁻¹ | kon [2]: 636000 M⁻¹ s⁻¹
B1: anti-NGF feline IgG1a, Fc variant S434Y, S426L (antibody, part only; not given: anti-NGF variable domains, light chain, not shown: another chain or arm of the molecule; small tags and cut ends)
Fc: PPEMLGGPSIFIFPPKPKDTLSISRTPEVTCLVVDLGPDDSDVQITWFVDNTQVYTAKTSPREEQFNSTYRVVSVLPILHQDWLKGKEFKCKVNSKSLPSPIERTISKAKGQPHEPQVYVLPPAQEELSRNKVSVTCLIKSFHPPDIAVEWEITGQPEPENNYRTTPPQLDSDGTYFVYSKLSVDRSHWQRGNTYTCLVSHEALHYHHTQKSLTQSPGK

Kd [3]: 55.6 nM and 50.2 nM | koff [3]: 0.0175 s⁻¹ and 0.0202 s⁻¹ | kon [3]: 314000 M⁻¹ s⁻¹ and 402000 M⁻¹ s⁻¹
B2: feline IgG1a Fc variant S434W (CH2-CH3) with SASA tag (Fc fusion, part only; not given: SASA tag, not shown: another chain or arm of the molecule; small tags and cut ends)
Fc: B1 Fc with L198S, Y206W

Kd [4]: 4.01 nM
B3: anti-NGF feline IgG1a, Fc variant S252W (antibody, part only; not given: anti-NGF variable domains, light chain, not shown: another chain or arm of the molecule; small tags and cut ends)
Fc: B1 Fc with S22W, L198S, Y206S

Kd [3]: 41.7 nM and 43.3 nM | koff [3]: 0.0158 s⁻¹ and 0.0161 s⁻¹ | kon [3]: 378000 M⁻¹ s⁻¹ and 371000 M⁻¹ s⁻¹
B4: feline IgG1a Fc variant S434F (CH2-CH3) with SASA tag (Fc fusion, part only; not given: SASA tag, not shown: another chain or arm of the molecule; small tags and cut ends)
Fc: B1 Fc with L198S, Y206F

Kd [1]: 5.6 nM | koff [1]: 0.00779 s⁻¹ | kon [1]: 1.39e+06 M⁻¹ s⁻¹ | Kd [2]: 46.9 nM | koff [2]: 0.112 s⁻¹ | kon [2]: 2.39e+06 M⁻¹ s⁻¹
B5: anti-NGF feline IgG1a, Fc variant S252Y, Q311K (antibody, part only; not given: anti-NGF variable domains, light chain, not shown: another chain or arm of the molecule; small tags and cut ends)
Fc: B1 Fc with S22Y, Q81K, L198S, Y206S

Kd [1]: 6.9 nM | koff [1]: 0.00648 s⁻¹ | kon [1]: 939000 M⁻¹ s⁻¹ | Kd [2]: 12.3 nM | koff [2]: 0.113 s⁻¹ | kon [2]: 9.17e+06 M⁻¹ s⁻¹
B6: anti-NGF feline IgG1a, Fc variant T286E, S428R (antibody, part only; not given: anti-NGF variable domains, not shown: another chain or arm of the molecule; small tags and cut ends)
Fc: B1 Fc with T56E, L198S, S200R, Y206S

Kd [4]: 32.2 nM | Kd [1]: 10.9 nM | koff [1]: 0.00977 s⁻¹ | kon [1]: 893000 M⁻¹ s⁻¹
B7: anti-NGF feline IgG1a, Fc variant S428Y, Q311V (antibody, part only; not given: Anti-NGF variable domains, not shown: another chain or arm of the molecule; small tags and cut ends)
Fc: B1 Fc with Q81V, L198S, S200Y, Y206S

Kd [4]: 20.1 nM
B8: anti-NGF feline IgG1a, Fc variant S428Y, Q311V, E380T (antibody, part only; not given: anti-NGF variable domains, not shown: another chain or arm of the molecule; small tags and cut ends)
Fc: B1 Fc with Q81V, E150T, L198S, S200Y, Y206S

Kd [3]: 316 nM and 444 nM | koff [3]: 0.0761 s⁻¹ and 0.0888 s⁻¹ | kon [3]: 241000 M⁻¹ s⁻¹ and 200000 M⁻¹ s⁻¹
B9: feline IgG1a Fc variant S434H (CH2-CH3) with SASA tag (Fc fusion, part only; not given: SASA tag, not shown: another chain or arm of the molecule; small tags and cut ends)
Fc: B1 Fc with L198S, Y206H

Kd [4]: 35.3 nM | Kd [1]: 13.2 nM | koff [1]: 0.0112 s⁻¹ | kon [1]: 847000 M⁻¹ s⁻¹
B10: anti-NGF feline IgG1a, Fc variant S428Y, L309V (antibody, part only; not given: Anti-NGF variable domains, not shown: another chain or arm of the molecule; small tags and cut ends)
Fc: B1 Fc with L79V, L198S, S200Y, Y206S

Kd [4]: 71.8 nM | Kd [1]: 25.6 nM | koff [1]: 0.0184 s⁻¹ | kon [1]: 718000 M⁻¹ s⁻¹
B11: anti-NGF feline IgG1a, Fc variant S428Y (antibody, part only; not given: anti-NGF variable domains, not shown: another chain or arm of the molecule; small tags and cut ends)
Fc: B1 Fc with L198S, S200Y, Y206S

Kd [4]: 6.11 nM
B12: anti-NGF feline IgG1a, Fc variant S428Y, Q311V, T286E (antibody, part only; not given: anti-NGF variable domains, light chain, not shown: another chain or arm of the molecule; small tags and cut ends)
Fc: B1 Fc with T56E, Q81V, L198S, S200Y, Y206S

Kd [1]: 3.8 nM | koff [1]: 0.00405 s⁻¹ | kon [1]: 1.06e+06 M⁻¹ s⁻¹ | Kd [2]: 306 nM | koff [2]: 0.0528 s⁻¹ | kon [2]: 173000 M⁻¹ s⁻¹
B13: anti-NGF feline IgG1a, Fc variant S252Y, Q311V (antibody, part only; not given: anti-NGF variable domains, light chain, not shown: another chain or arm of the molecule; small tags and cut ends)
Fc: B1 Fc with S22Y, Q81V, L198S, Y206S

Kd [4]: 20.6 nM
B14: anti-NGF feline IgG1a, Fc variant S428Y, L309V, E380T (antibody, part only; not given: anti-NGF variable domains, light chain, not shown: another chain or arm of the molecule; small tags and cut ends)
Fc: B1 Fc with L79V, E150T, L198S, S200Y, Y206S

Kd [3]: 1190 nM and 1640 nM | koff [3]: 0.374 s⁻¹ and 0.195 s⁻¹ | kon [3]: 314000 M⁻¹ s⁻¹ and 119000 M⁻¹ s⁻¹
B15: wild-type feline IgG1a Fc (CH2 and CH3 domains) with SASA tag (Fc fusion, part only; not given: SASA tag, not shown: another chain or arm of the molecule; small tags and cut ends)
Fc: B1 Fc with L198S, Y206S

Kd [5]: 5.26 nM
B16: anti-NGF feline IgG1a, Fc variant S428Y, L309V, T286E (antibody, part only; not given: anti-NGF variable domains, not shown: another chain or arm of the molecule; small tags and cut ends)
Fc: B1 Fc with T56E, L79V, L198S, S200Y, Y206S

Kd [3]: 528 nM and 565 nM | koff [3]: 0.103 s⁻¹ and 0.105 s⁻¹ | kon [3]: 195000 M⁻¹ s⁻¹ and 187000 M⁻¹ s⁻¹
B17: feline IgG1a Fc variant S428Y (CH2-CH3) with SASA tag (Fc fusion, part only; not given: SASA tag, not shown: another chain or arm of the molecule; small tags and cut ends)
Fc: B1 Fc with L198S, S200Y, Y206S

Kd [3]: 485 nM and 763 nM | koff [3]: 0.0788 s⁻¹ and 0.0803 s⁻¹ | kon [3]: 162000 M⁻¹ s⁻¹ and 105000 M⁻¹ s⁻¹
B18: feline IgG1a Fc variant S428L (CH2-CH3) with SASA tag (Fc fusion, part only; not given: SASA tag, not shown: another chain or arm of the molecule; small tags and cut ends)
Fc: B1 Fc with L198S, S200L, Y206S

Kd [3]: 603 nM | koff [3]: 0.1 s⁻¹ | kon [3]: 166000 M⁻¹ s⁻¹
B19: feline IgG1a Fc variant S428M (CH2-CH3) with SASA tag (Fc fusion, part only; not given: SASA tag, not shown: another chain or arm of the molecule; small tags and cut ends)
Fc: B1 Fc with L198S, S200M, Y206S
